Laboratory results published in article PMC6047744.

Molecular target: Polθ-helicase domain (human, UniProt O75417 1-894)
Assay: EMSA

Polθ-helicase domain, sequence (O75417 1-894): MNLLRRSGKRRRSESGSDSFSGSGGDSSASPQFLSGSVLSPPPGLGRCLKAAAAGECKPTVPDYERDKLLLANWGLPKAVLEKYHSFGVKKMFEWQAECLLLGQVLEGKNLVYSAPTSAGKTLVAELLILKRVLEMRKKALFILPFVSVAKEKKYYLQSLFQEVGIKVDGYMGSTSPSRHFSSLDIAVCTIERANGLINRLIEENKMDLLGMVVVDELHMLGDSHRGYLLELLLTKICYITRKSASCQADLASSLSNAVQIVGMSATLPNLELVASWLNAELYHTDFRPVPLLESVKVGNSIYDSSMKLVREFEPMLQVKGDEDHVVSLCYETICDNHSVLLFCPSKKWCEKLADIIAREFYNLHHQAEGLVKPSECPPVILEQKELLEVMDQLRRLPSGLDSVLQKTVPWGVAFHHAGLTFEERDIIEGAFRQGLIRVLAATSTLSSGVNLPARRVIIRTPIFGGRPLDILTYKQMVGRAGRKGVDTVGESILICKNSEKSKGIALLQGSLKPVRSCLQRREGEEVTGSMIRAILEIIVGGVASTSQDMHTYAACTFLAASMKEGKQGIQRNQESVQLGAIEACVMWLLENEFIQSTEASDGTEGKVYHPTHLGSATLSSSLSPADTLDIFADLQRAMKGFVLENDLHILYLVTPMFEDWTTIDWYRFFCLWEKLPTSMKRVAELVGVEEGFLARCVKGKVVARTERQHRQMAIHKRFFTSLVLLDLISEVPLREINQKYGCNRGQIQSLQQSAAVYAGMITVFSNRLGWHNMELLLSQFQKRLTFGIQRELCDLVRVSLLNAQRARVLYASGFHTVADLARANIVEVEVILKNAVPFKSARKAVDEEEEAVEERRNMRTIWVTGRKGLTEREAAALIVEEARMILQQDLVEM

B1: SM76 (ssDNA)
DNA: TTTTATATTTTGTTTTGTGTTATTTTTTTCTTTAACAT
  binding result: binds
